# US20220047684A1, “ENZYMES AND METHODS FOR PREVENTING AND TREATING […] IN ANIMALS” (Ecto Development Corporation, priority 2020, published 2022)
# B1: E3: carboxylesterase PytH2 (pytH) from Sphingobium wenxiniae, amino acid SEQ. ID No. 3, DNA SEQ. ID No. 6; recombinant, His-tagged (protein, listed as Sphingobium wenxiniae)
# chain: MTVTDIILIHGALNRGACYDAVVPLLEARGYRVHAPDLTGHTPGDGGHLSVVDMEHYTRPVADILARAEGQSILLGHSLGGASISWLAQHHYDKVAGLIYLTAVLTAPGITPETFVLPGEPNRGTPHALDLIQPVDEGRGLQADFSRLERLREVFMGDYPGEGMPPAEQFIQTQSTVPFGTPNPMEGRALEIPRLYEALDDVVIPIAVQRQMQKEFPGPVAVVSLPASHAPYYSMPERLAEAIADFADAPAEYRQTATKAGPDRPAGADGGRADRADLP
# modifications: His tag
# notes: ID No. 6; recombinant, His-tagged
# Key:
# Assay type in all cases: biochemical
# [1] = pNPA method esterase (carboxylesterase) activity assay of spore productions; settings: 30° C. for 30 minutes, absorbance at 400
# Experimental: Each of the identified enzymes were evaluated for esterase activity assay using pNBA method described below. Determination of carboxylesterase activity of cargo enzyme in Bacillus thuringiensis spore productions or of free enzyme productions. Three active carboxylesterases cloned into pBCm (Bt EO) and pET28a (E. coli BL21) systems: pnbA (B. subtilis), PytH2 (Sphingobium wenxiniae strain), and MsE1 (Methylobacterium sp). p-Nitrophenyl acetate was the substrate in assays for esterase activity. The hydrolysis of p-nitrophenyl acetate releases p-nitrophenol and acetate, and while p-nitrophenyl acetate is colorless, p-nitrophenol is yellow.
# 6 mg p-Nitrophenyl acetate (pNPA, CAS #830-03-5, MW: 181.1 g/mol) was weighed and dissolved in 1 mL methanol (CAS #67-56-1, MW: 32.04 g/mol). Stored at −20° C. and kept on ice when preparing reactions.
# 8.0 g sodium chloride (NaCl, CAS #7647-14-5, MW: 58.44 g/mol), 1.44 g sodium phosphate dibasic was dissolved (Na2HPO4, CAS #7558-79-4, MW: 141.96 g/mol), and 0.24 g potassium phosphate monobasic (KH2PO4, CAS #7778-77-0, 136.09 g/mol) in 800 mL DI H20, then adjust pH to 7.4 using hydrochloric acid (HCl, CAS #7647-01-0, MW: 36.46 g/mol). Make 100 mL aliquots and autoclave.
# Esterase from rabbit liver (CAS #9016-18-6, Sigma E0887-powder). Store at −20° C. To prepare a stock dissolve 1 mg in 1 mL PBS, kept on ice when using.
# Up to 1 mL spore production was pelleted up for 5 min at max speed. Supernatant was discarded without disturbing spore pellet and suspend pellet in ice-cold PBS. Spores kept suspended on ice until use.
# The assay was run at 30° C. for 30 minutes. The assay was shaken continuously. Activity was read on (A) 400 BioTek Synergy/HTX microplate reader was used. The results of pNPA hydrolysis are shown in Table 3 depicting carboxylesterase enzyme activity for each of the five strains using pNPA hydrolysis.
# [2] = Fenpropathrin degradation, HPLC; settings: 20 ppm fenpropathrin; 15 minutes at 37 C with shaking
# Experimental: 1000 ppm fenpropathrin was diluted to 5 point curve which was able to detect on HPLC the gradient of 20% water and 80% using the instrument method described above for permethrin. 20 ppm of […] was placed in […] with 10 μL […] and reacted for 15 minutes at 37 C with shaking. HPLC was run on the sample after being diluted 1:1 MeOH using instrument method described above for permethrin. A 90% degradation of fenpropathrin was detected with PytH2.
# [3] = Serum analysis: cat serum plus permethrin +/- E3, HPLC; settings: for % permethrin control: relative to no enzyme
# Experimental: The next step was to test the enzymatic hydrolysis of permethrin in feline blood (cat serum). Cat serum was acquired, permethrin was added to the serum and was assayed as a control by HPLC. After the cat serum control was analyzed three different concentrations of the enzyme were introduced to the cat serum control and then analyzed by HPLC.
# Cat serum was acquired, permethrin was added to the serum and was assayed as a control by HPLC. After the cat serum control was analyzed three different concentrations of the enzyme were introduced to the cat serum control and then analyzed by HPLC.
molecule,measurement,setting,value
B1,pNPA hydrolysis,[1],26.3 ± 0.9 nmol pNPA/min/1E+8 spores
same,degradation of fenpropathrin,[2],90%
same,Cis-permethrin (HPLC area),"[3]; 2.5 μL E3, 15 min 37 degree C.",1624.5
same,Total permethrin (area),"[3]; 2.5 μL E3, 15 min 37 degree C.",1624.5 area
same,Total permethrin (expected 2 ppm),"[3]; 2.5 μL E3, 15 min 37 degree C.",0.098 ppm
same,Trans-permethrin (HPLC area),"[3]; 2.5 μL E3, 15 min 37 degree C.",0
same,% permethrin control,"[3]; 2.5 μL E3, 15 min 37 degree C.",7.0%
same,Cis-permethrin (HPLC area),"[3]; 10 μL E3, 15 min 37 degree C.",0
same,Total permethrin (area),"[3]; 10 μL E3, 15 min 37 degree C.",0 area
same,Total permethrin (expected 2 ppm),"[3]; 10 μL E3, 15 min 37 degree C.",0.000 ppm
same,Trans-permethrin (HPLC area),"[3]; 10 μL E3, 15 min 37 degree C.",0
same,% permethrin control,"[3]; 10 μL E3, 15 min 37 degree C.",0.0%
same,% permethrin control,"[3]; 10 μL E3, 15 min 37 degree C., listed as PytH2",0.0%
same,Cis-permethrin (HPLC area),"[3]; 30 μL E3, 15 min 37 degree C.",0
same,Total permethrin (area),"[3]; 30 μL E3, 15 min 37 degree C.",0 area
same,Total permethrin (expected 2 ppm),"[3]; 30 μL E3, 15 min 37 degree C.",0.000 ppm
same,Trans-permethrin (HPLC area),"[3]; 30 μL E3, 15 min 37 degree C.",0
same,% permethrin control,"[3]; 30 μL E3, 15 min 37 degree C.",0.0%
